Measurements as given in US8673270B2, “RGD-containing peptidomimetics and uses thereof” (priority 2008, dated 2014).
Where two headings read alike, the source gives them in different places.

Legend:
[1] = tested on: MLS human ovarian carcinoma cells; assay: Integrin binding assay (in vitro), fluorescence imaging of cells incubated with conjugate; type: cell-based; details: 100 μM/well, 3 hrs at 37° C., IVIS imaging
Description: (xv) In-vitro binding assay. MLS human ovarian carcinoma cells were cultured as monolayers in minimum essential medium (MEM-alpha) containing 1 g/l D-glucose, pH 7.4, 10% fetal calf serum (FCS), glutamine (2 mM), penicillin (0.06 mg/ml) and streptomycin (0.1 mg/ml), and were grown at 37° C. in 5% CO2-humidified atmosphere. At 48 hrs before experiment, cells were seeded at 6 well plates (3×10^5 cells/well).
Expression of αvβ3 integrin on MLS cells. The cells were grown on cover slips. Following overnight serum starvation, fixation with 4% paraformaldehyde (Sigma, Israel) and permeabilization with 0.2% Triton X-100 (Sigma, Israel), cells were incubated in blocking solution (10% of horse serum) (Biological Industries, Israel) for 1 hr at RT. Cells were then incubated with mouse anti-human αvβ3 integrin antibodies (1:100) (Chemicon, Biotest, Israel) for 1 hr at RT. Secondary rabbit FITC-labeled anti-mouse IgG (1:200) (Sigma, Israel) were applied to cells for 1 hr at RT. Imaging was performed by fluorescent microscope (Nikon Optiphot2, Japan) equipped with a digital camera (DVC Company, Inc., Austin, Tex.).
In vitro binding assay. RGD-conjugates were initially dissolved in DMSO to yields 4×10^−3 M. The stock solutions were then diluted 1:40 in culture medium and added into MILS or HT29 cells (100 μM/well). Cells were incubated at 37° C. in 5% CO2-humidified atmosphere for 3 hrs. Cells were then washed 3 times with PBS and images were performed on a Xenogen IVIS® 100 Series Imaging System. The excitation and emission filters set in the IVIS for BTA-RGD were 710-760 nm and 810-860 nm, respectively, and for FITC-RGD were 445-490 nm and 515-575 nm, respectively.

[2] = tested on: MLS human ovarian carcinoma cells; design: species or system CD-1 nude mice; details: mouse, in vivo
Source text: (ix) In-vivo ovarian carcinoma model. Female CD-1 nude mice (7-9 weeks old, 23-28 gr) were anaesthetized and subcutaneously (SC) implanted with MLS human ovarian carcinoma cells (obtained from Prof. M. Neeman, the Weizmann Institute of Science, Israel) suspension (2-3×10^6 cells/mouse). Tumors reached treatment size, diameter 6-8 mm, within 2-3 weeks.
Animals were anaesthetized by gas with mixture of 7:3 N2O:O2 containing 2% isofluorane (Medeva, Bethlehem, Pa.) or by intraperitoneal (IP) injection with mixture of 5 mg/kg ketamine (Rhone Merieux, Lyon, France) and 1 mg/kg pompun (Bayer, Leverkusen, Germany) (85:15, v:v).
(xiii) Fluorescent imaging protocol for BTA-RGD conjugates. Test compounds (8 mg/kg) were injected into the tail vein of IP anaesthetized tumor-bearing mice. Images of gas-anaesthetized animals were taken at 6, 8, 10, 12, 14 and 24 hrs (in some cases also at 48 and 72 hrs) after injection using IVIS® 100 Series Imaging System. The excitation and emission filters were set in the IVIS to 710-760 nm and to 810-860 nm, respectively. The emission filter with wavelength closest to the emission peak of the compound was selected among available filters in the standard configuration of IVIS.
(xiv) Fluorescent imaging protocol for FITC-RGD conjugates. Test compounds (8 mg/kg) were injected into the tail vein of IP anaesthetized tumor-bearing mice. Images of gas-anaesthetized animals were taken at 6 and 8 hrs after injection. Animals were sacrificed at 8 hrs, the organs (tumor, kidney, liver) were excited and images of the organs were taken using IVIS® 100 Series Imaging System. The excitation and emission filters were set in the IVIS to 445-490 nm and to 515-575 nm, respectively. The emission filter with wavelength closest to the emission peak of FITC was selected among available filters in the standard configuration of IVIS.

human αvβ3 integrin = molecular target: T1, human αvβ3 integrin (Homo sapiens, UniProt P05106+P06756); assay: Competitive binding experiments (determination of IC50) against c[RGDfK]-biotin, ELISA; details: competition with c[RGDfK]-biotin (10^−3M), coated integrin
T1 construct: purchased Chemicon
Description: (viii) Integrin binding test by ELISA. Nunc immuno-module strips (Nunclon, Cat#167008, Daniel Biotech, Israel) were coated for overnight with 2 μg/ml human integrin αvβ3 (Chemicon, Cat#CC1020, Biotest, Israel) dissolved in 0.06 M carbonate-bicarbonate buffer. Strips were blocked for 2 hrs at RT with 2% bovine serum albumin (BSA) (Sigma, Cat#A-9647, Israel) in phosphate buffered saline (PBS) (Biological Industries, Israel). A mixture of c[RGDfK]-biotin (10^−3M) and a test compound at different concentrations (10^−2, 10^−3, 10^−4 and 10^−5M) diluted in assay buffer (50 mM Tris HCl, pH=7.7, 0.5% BSA, 0.15 M NaCl, 0.01% Tween 20) was added to the coated strips and was incubated overnight at RT with shaking. After washing with PBS, anti-biotin antibodies labeled by alkaline phosphatase (1:200) (Miltenyi Biotec, Almog, Israel) were added and incubated for 1 hr at RT. The samples were incubated with p-nitrophenyl phosphate substrate (p-NPP, Calbiochem, Mercury, Israel) and read at 405 nm.
(xvi) Competitive binding experiments (determination of IC50). Immuno-module strips MAXISORP (Nunc, Danyel Biotech, Israel) were coated with 50 μl/well of 2 μg/ml human αvβ3 integrin (Chemicon, USA) overnight and blocked with 2% BSA (Sigma, Israel) for 2 hrs at RT. After wash with Tris buffered saline-Tween (TBST) buffer, a mixture of RGD peptide c[RGDfK]-biotin (10^−3M) and the tested RGD-conjugate at different concentrations (10^−2, 10^−3, 10^−4 and 10^−5 M) was added in triplicates and was incubated overnight and shaken at RT. After wash with PBS buffer, anti-biotin antibodies labeled by alkaline phosphatase (1:200) (Miltenyi Biotec, Germany) were added and incubated for 1 hr at RT. The samples were incubated with p-NPP substrate and read at 405 nm on Multiscan Spectrum (Labotal, Israel). The data were plotted to graph of dependence of binding percent out of concentration of RGD-conjugate and IC50 value was determined. […]

[3] = tested on: MDA-MB-231-RFP human breast cancer cells; assay: In-vivo breast cancer model, orthotopic large necrotic tumor, IVIS imaging; design: species or system CD-1 nude mice; details: six days post injection, necrotic tumors 1-1.5 cm^3
Description: (xii) In-vivo breast cancer model. Female CD-1 nude mice (6-8 weeks old, 20-25 g, obtained from Harlan Biotech Israel, Rehovot, Israel) were implanted with MDA-MB-23′-RFP human breast cancer cells (4×10^6 cells/mouse). […] When tumors reached the size of 1-1.5 cm^3 for necrotic tumors, mice were anaesthetized by IP injection of 30 μl mixture of 85:15 ketamine:xylazine, and the test conjugate (15 mg/kg) was then injected to the tail vein.
In this study, the specific accumulation pattern of conjugates 1, 4 and 41 in orthotopic primary lesions of mammary carcinoma model, monitored by fluorescence signal generated by the tumor, and the fluorescence signal generated by these conjugates were examined. The localization of the conjugates in the tumors as time progress was also determined. Animals were treated as described in Materials and Methods, and fluorscence of both tumor cells and conjugates 1, 4 and 41 was monitored by IVIS® 100 imaging system from day 1 to 7.
FIGS. 1A, 1B and 1C show the accumulation patterns of conjugates 1, 4 and 41, respectively, in orthotopic human breast MDA-MB-231-RFP primary large tumor in the mammary pad of CD-1 nude female mice, using the Xenogen IVIS® System. Whole animal images° were recorded concomitantly using filter sets comprising excitation filter 500-550 nm and emission filter 575-650 nm. Background filter set for subtraction the tissue auto fluorescence: excitation filter 460-490 nm and emission filter 575-650 nm. Photosensitizer imaging main filter set: excitation filter 665-695 nm, emission filter 810-875 nm.

Toxicity study on rats = type: in vivo; details: 50 mg/kg into tail vein; for Necrosis or inflammation in liver or kidneys: after five days
Description: The various conjugates at dose of 50 mg/kg were injected into the tail vein during 1-2 min.

[4] = tested on: LNCaP prostate cancer cells; assay: In-vivo prostate cancer model, IVIS imaging; details: for Fluorescent level in excised organs: 14 hrs after injection, prostate and ovarian tumor-bearing mice; for Time of highest fluorescent level in tumor after injection: LNCaP prostate tumor
[5] = tested on: LNCaP prostate cancer cells; details: mouse, in vivo

CCC1c2cc3[nH]c(c(CC(=O)OC)c4nc(cc5[nH]c(cc(n2)C1C)c(C(C)=O)c5C)C(C)C4CCC(=O)N[C@H]1CNC(=O)[C@H](CC(=O)O)NC(=O)CNC(=O)[C@H](CCCNC(=N)N)NC(=O)NCCNC1=O)c(C(=O)NCCS(=O)(=O)O)c3C (some centres unmarked) [Conjugate 1]
Integrin binding assay (in vitro) [1]: Binding
Time of highest fluorescent level in tumor after injection [2]: 8 to 11 h
Time the conjugate stayed in the tumor [2]: up to 48 hrs
IC50 (human αvβ3 integrin): 100 µM
Localization of conjugate within breast tumor [3]: Accumulate in the Necrotic Core of MDA Necrotic Tumors
Survival, behavior and motility (Toxicity study on rats): Animals were survived and did not show any behavior or motility problems
Necrosis or inflammation in liver or kidneys (Toxicity study on rats): no evidence of necrosis or inflammation was found in the liver or the kidneys
Fluorescent level in excised organs [4]: high fluorescent level observed in the liver and kidney
Time of highest fluorescent level in tumor after injection [4]: 8 to 11 h

CCC1c2cc3[nH]c(c(CC(=O)OC)c4nc(cc5[nH]c(cc(n2)C1C)c(C(C)=O)c5C)C(C)C4CCC(=O)N[C@H]1CCCNC(=O)[C@H](CC(=O)O)NC(=O)CNC(=O)[C@H](CCCNC(=N)N)NC(=O)NCCNC1=O)c(C(=O)NCCS(=O)(=O)O)c3C (some centres unmarked) [Conjugate 4]
Integrin binding assay (in vitro) [1]: Binding
Time of highest fluorescent level in tumor after injection [2]: 8 to 14 h
Time the conjugate stayed in the tumor [2]: up to 48 hrs
IC50 (human αvβ3 integrin): 300 µM
Localization of conjugate within breast tumor [3]: Accumulate in the Necrotic Core of MDA Necrotic Tumors
Survival, behavior and motility (Toxicity study on rats): Animals were survived and did not show any behavior or motility problems
Necrosis or inflammation in liver or kidneys (Toxicity study on rats): no evidence of necrosis or inflammation was found in the liver or the kidneys
Fluorescent level in excised organs [4]: high fluorescent level observed in the liver and kidney
Time of highest fluorescent level in tumor after injection [4]: 8 to 14 h

CCC1c2cc3[nH]c(c(CC(=O)OC)c4nc(cc5[nH]c(cc(n2)C1C)c(C(C)=O)c5C)C(C)C4CCC(=O)NCCCC[C@@H]1NC(=O)N[C@@H](Cc2ccccc2)C(=O)NC[C@@H](C(N)=O)NC(=O)[C@H](CC(=O)O)NC(=O)CNC(=O)[C@H](CCCNC(=N)N)NC1=O)c(C(=O)NCCS(=O)(=O)O)c3C (some centres unmarked) [Conjugate 41]
Integrin binding assay (in vitro) [1]: In vitro: binding
Time of highest fluorescent level in tumor after injection [2]: 8 to 12 h
Time the conjugate stayed in the tumor [2]: ≤ 24 h
IC50 (human αvβ3 integrin): 100 µM
Localization of conjugate within breast tumor [3]: Accumulate in the Necrotic Core of MDA Necrotic Tumors
Survival, behavior and motility (Toxicity study on rats): Animals were survived and did not show any behavior or motility problems
Necrosis or inflammation in liver or kidneys (Toxicity study on rats): no evidence of necrosis or inflammation was found in the liver or the kidneys
Time of highest fluorescent level in tumor after injection [5]: 8 to 12 h
